Source: article PMC7355005 (Proceedings of the National Academy of Sciences of the …, 2020)
Values joined by “and” are separate entries in the source; they are usually repeats but may differ in a detail not shown here. Equal entries are not always repeated.

What was measured:
[1] = target: Human hemoglobin (Hb) (human, UniProt P69905;P68871); assay: mass photometry
[2] = target: the molecule itself; assay: mass photometry
[3] = target: the molecule itself; assay: native MS

Sequence of Human hemoglobin (Hb) (P69905 whole entry, chain 1 of 2): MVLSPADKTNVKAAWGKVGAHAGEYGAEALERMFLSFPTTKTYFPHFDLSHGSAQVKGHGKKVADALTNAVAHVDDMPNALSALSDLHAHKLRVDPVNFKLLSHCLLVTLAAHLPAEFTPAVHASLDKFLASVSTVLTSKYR
Sequence of Human hemoglobin (Hb) (P68871 whole entry, chain 2 of 2): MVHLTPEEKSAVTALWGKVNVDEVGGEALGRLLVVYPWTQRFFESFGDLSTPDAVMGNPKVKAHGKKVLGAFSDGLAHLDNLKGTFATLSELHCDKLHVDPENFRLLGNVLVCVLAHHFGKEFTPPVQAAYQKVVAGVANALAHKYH

B1: Haptoglobin 1-1 (Hp 1-1), dimer of two α1β units (complex)
chain 1: VDSGNDVTDIADDGCPKPPEIAHGYVEHSVRYQCKNYYKLRTEGDGVYTLNNEKQWINKAVGDKLPECEAVCGKPKNPANPVQ
chain 2: ILGGHLDAKGSFPWQAKMVSHHNLTTGATLINEQWLLTTAKNLFLNHSENATAKDIAPTLTLYVGKKQLVEIEKVVLHPNYSQVDIGLIKLKQKVSVNERVMPICLPSKDYAEVGRVGYVSGWGRNANFKFTDHLKYVMLPVADQDQCIRHYEGSTVPEKKTPKSPVGVQPILNEHTFCAGMSKYQEDTCYGDAGSAFAVHDLEEDTWYATGILSFDKSCAVAEYGVYVKVTSIQDWVQKTIAEN
modifications: N-glycans at Asn184, Asn207, Asn211 and Asn241
stoichiometry N [1]: 2 Hb(αβ) dimers per Hp 1-1 dimer | stoichiometry N [2]: 2 Hp (αβ) units

B2: Haptoglobin 2-2 (Hp 2-2), cyclic (α2)n(β)n oligomers (complex)
chain 1: VDSGNDVTDIADDGCPKPPEIAHGYVEHSVRYQCKNYYKLRTEGDGVYTLNDKKQWINKAVGDKLPECEADDGCPKPPEIAHGYVEHSVRYQCKNYYKLRTEGDGVYTLNNEKQWINKAVGDKLPECEAVCGKPKNPANPVQ
chain 2: B1 chain 2
modifications: N-glycans at Asn184, Asn207, Asn211 and Asn241
stoichiometry N [3]: < 7 Hp (αβ) units | stoichiometry N [1]: 1 Hb(αβ) dimer per Hp (αβ) monomer

B3: Haptoglobin 2-1 (Hp 2-1) oligomers from the serum of a single heterozygote donor (complex)
chain 1: B1 chain 1
chain 2: B2 chain 1
chain 3: B1 chain 2
modifications: N-glycans at Asn184, Asn207, Asn211 and Asn241
stoichiometry N [3]: 3 Hp (αβ) units and 4 Hp (αβ) units and 5 Hp (αβ) units
